Assay results: patent publication CN116675768A (WUHAN ABCLONAL INC, dated 2023)

T1: 重组人NEFL蛋白 (human, UniProt P07196 400-543)
T1 construct: Expressed in E. coli Rosetta(DE3) from the vector pET-28a-sumo and purified on a Ni column; also called 人轻肽神经细丝蛋白(NEFL); 神经丝轻链
T1 sequence: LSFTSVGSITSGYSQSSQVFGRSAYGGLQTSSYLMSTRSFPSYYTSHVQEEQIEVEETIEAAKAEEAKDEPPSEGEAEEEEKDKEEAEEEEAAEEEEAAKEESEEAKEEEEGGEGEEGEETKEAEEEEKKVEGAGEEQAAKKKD


Target: T1, 重组人NEFL蛋白
Test: BLI (Gator); antibody 2 μg/mL, recombinant human NEFL 150 nM and 75 nM

Kd [nM] | koff [s⁻¹] | kon [M⁻¹ s⁻¹] | Binder
3.2 | 0.00043 | 134000 | 兔单克隆抗体2G10 (antibody, V domains shown, also called 抗人NEFL蛋白的兔单克隆抗体2G10; 2G10-biotin) VH: QSLEESGGRLVTPGTRLTLTCTVSGFSLGRYAMGWVRQAPGKGLEWIGIINSYGTTYYASWAKGRFTISKTSTTVDLKITSPTTEDTATYFCARDGYEDYGDYYNAFDPWGPGTLVTVSS VL: DVVMTQTPASVSEPVGGTVTIKCQASQSIGVTLAWYQQKPGQPPKLLIYKASNLASGVSSRFKGSRSGTEYTLTISDLECADAATYYCQCTWYGPSFVGAFGGGTEVVVKG
2.03 | 0.000504 | 248000 | 兔单克隆抗体1H8 (antibody, V domains shown, also called 抗人NEFL蛋白的兔单克隆抗体1H8; 捕获抗体) VH: QSLEESGGRLVTPGTPLTLTCAVSGIDLSRYGIDWVRQAPGKGLEWIGTVSAGGDSWYASWAKGRFTISKTSSTTVDLEVTSPTTEDTATYFCAKGATLNLWGQGTLVTVSS VL: DPVLTQTPSSTSAAVGGTVTINCQSSQNVYGNNWLAWYQKKPGQSPKLLIISASSLPSGVPSRFKGSGSGTQFTLTISDLECDDAATYYCAGGYSGYIYTFGGGTEVVVKG
